Measured values taken from patent US20210347908A1 (ELPISCIENCE SUZHOU BIOPHARMA, published 2021).

Target: T1, full length human SIRPα v1 stably expressed on CHOK1 cells (human, UniProt P78324 31-504)
T1 construct: whole, on cells; also called CHOK1-human SIRPα v1-1B4 cells; CHOK1-human SIRPα v1
Test: FACS on CHOK1-human SIRPα v1-1B4 cells
Experimental: Species cross reactivity of the purified hybridoma antibodies against human, cyno and mouse SIRPα was determined by FACS assay using CHOK1-human SIRPα v1-1B4 cells, CHOK1-cyno SIRPα-2A2 cells, and CHOK1-C57BL/6 mouse SIRPα-2.22 cells, which stably expressing SIRPα protein. Briefly the antibodies were incubated with 2×10⁵ target cells at 4° C. for 1 hour. After washing, fluorescence labeled anti-mouse or anti-human IgG 2nd antibody (Life Technologies) was added and incubated at 4° C. for 1 hour. Geometric median fluorescence intensity was detected and EC₅₀ was calculated. In particular, it is noted, in contrast to the other antibodies tested in the same experiment, 060 cannot bind with cyno SIRPα and 035 has cross reactivity against C57BL/6 mouse SIRPα.
hu035.01, the first version of humanized 035, was characterized by FACS assay using CHOK1-human SIRPα v1-1B4 cells, ELISA assay using Fc tagged human SIRPα v2 ECD recombinant protein and SPR analysis using the antigen of 6×His tagged human SIRPα v2 ECD recombinant protein (refer to methods described in Example 3.4, Example 3.3 and Example 4.3). […] In particular, hu035.01 cannot be detected to bind with C57BL/6 mouse SIRPα ECD in ELISA assay possibly due to reduced binding activity (FIG. 5B).

T1 sequence (P78324 31-504): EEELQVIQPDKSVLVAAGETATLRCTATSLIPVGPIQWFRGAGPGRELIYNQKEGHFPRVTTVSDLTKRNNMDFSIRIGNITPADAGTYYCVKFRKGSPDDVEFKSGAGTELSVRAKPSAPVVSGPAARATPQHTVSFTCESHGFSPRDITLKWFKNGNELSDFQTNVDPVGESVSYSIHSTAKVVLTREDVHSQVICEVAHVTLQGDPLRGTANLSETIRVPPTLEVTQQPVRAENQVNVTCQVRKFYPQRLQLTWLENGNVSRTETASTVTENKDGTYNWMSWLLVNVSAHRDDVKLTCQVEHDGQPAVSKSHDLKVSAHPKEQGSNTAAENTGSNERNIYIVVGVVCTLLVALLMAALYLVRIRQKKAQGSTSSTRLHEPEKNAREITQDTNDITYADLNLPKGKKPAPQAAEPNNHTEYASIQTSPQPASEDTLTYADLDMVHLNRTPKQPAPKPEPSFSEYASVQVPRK

B1: chimeric antibody 035c (antibody, V domains shown)
VH: QIQLVQSGPELRKPGETVKISCKASGYSFTNYAMNWVKQAPGKVLKWMGFINTYTGEPTYADDFKGRFAFSLETSASTAYLQINNLKNEDTATYFCTRTRGYYDFDGGAFDYWGQGTSLTVSS
VL: DIVMTQSQKFMSTSIGDRVSVTCKASQNVGTHLAWYQQKPGQSPKALIFSASYRYIGVPDRFTGSGSGTDFTLTITNVQSEDLAEYFCQQYNTYPLTFGAGTKLELK
  EC50 (read off the curve): ~0.2 mg/L
